The values that follow come from patent publication US20190321401A1 (JUNO THERAPEUTICS, published 2019).

For assay [1], the target named is T1, HPV 16 E6 peptide on HLA-A*02:01 (human).
T1 peptide: TIHDIILECV
Nature of the assay: multimer staining.

Assay [2] has as its target T2, HPV 16 E7 peptide on HLA-A*02:01 (human).
T2 peptide: YMLDLQPET
Put plainly: multimer staining.

The target of assay [3] is T3, HPV16 E7(11-19)-peptide-MHC tetramer complex (human papillomavirus 16 (HPV16); human).
T3 construct: also called E7(11-19)-specific tetramer; MHC/E7(11-19) peptide tetramer
Put plainly: flow cytometry, peptide-MHC tetramer staining of TCR-transduced primary human T cells.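 Note: normal donor T cells activated with anti-CD3/anti-CD28, then lentivirally transduced with TCRs, with mock-transduced cells as control, co-stained for the transduction marker and CD8, tetramers presented by HLA-A02:01.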 In general terms: A flow cytometer gives signals particle by particle.
Procedure: (§1) CD8+ and CD4+ T cells were isolated from normal human donors and were stimulated with anti-CD3/anti-CD28 reagent, and then were transduced with a lentiviral preparation encoding various TCRs, or were subjected to a mock transduction control (cells treated under the same conditions used for lentiviral transduction but without addition of lentivirus). Following transduction, the cells were cultured in media containing human serum and cytokines.
(§2) After transduction, the cells were assessed by flow cytometry for staining with an antibody that recognized the surrogate marker, an anti-CD8 antibody, and a HPV 16 E6(29-38)- or HPV16 E7(11-19)-peptide-MHC tetramer complex. […] The reference TCR contains a mouse constant region.
(§3) Column 3 and 4 sets forth the percentage of CD8+ cells and CD8− cells (CD4+ cells) positive for E7(11-19)-specific tetramer staining in flow cytometry. Column 5 and 6 sets forth the percentage of CD8+ cells and CD8− cells (CD4+ cells) positive for E6(29-38)-specific tetramer staining in flow cytometry.

The target of assay [4] is T4, HPV 16 E6(29-38)-peptide-MHC tetramer complex (human papillomavirus 16 (HPV16); human).
T4 construct: also called E6(29-38)-specific tetramer
The assay is described as above.
Procedure: as §1, §2, §3

B1: TCR 65 (TCR, V domains shown)
Valpha: EDQVTQSPEALRLQEGESSSLNCSYTVSGLRGLFWYRQDPGKGPEFLFTLYSAGEEKEKERLKATLTKKESFLHITAPKPEDSATYLCAVQAERGSTLGRLYFGRGTQLTVWP
Vbeta: DVKVTQSSRYLVKRTGEKVFLECVQDMDHENMFWYRQDPGLGLRLIYFSYDVKMKEKGDIPEGYSVSREKKERFSLILESASTNQTSMYLCASSLWGRRNTGELFFGEGSRLTVL
Regarding B1, the results for the binding result in assay [1] and in assay [2] were “recognises” and “no recognition”, respectively.

B2: TCR 64 (mouse constant regions) (TCR, V domains shown)
V domain 1: AQKVTQAQTEISVVEKEDVTLDCVYETRDTTYYLFWYKQPPSGELVFLIRRNSFDEQNEISGRYSWNFQKSTSSFNFTITASQVVDSAVYFCALSGVDNYGQNFVFGPGTRLSVLP
V domain 2: DTAVSQTPKYLVTQMGNDKSIKCEQNLGHDTMYWYKQDSKKFLKIMFSYNNKELIINETVPNRFSPKSPDKAHLNLHINSLELGDSAVYFCASSQGEAGANVLTFGAGSRLTVLE
Consider B2, for which, in assay [3], the “% of CD8+ cells positive for E7(11-19) tetramer staining” value was 0.13% and the “% of CD8- (CD4+) cells positive for E7(11-19) tetramer staining” value is 0.06%. Besides, in assay [4], the “% of CD8+ cells positive for E6(29-38) tetramer staining” value worked out at 0.17% and the “% of CD8- (CD4+) cells positive for E6(29-38) tetramer staining” value was determined as 0.11%.

B3: TCR 64 (TCR, V domains shown)
Valpha: AQKVTQAQTEISVVEKEDVTLDCVYETRDTTYYLFWYKQPPSGELVFLIRRNSFDEQNEISGRYSWNFQKSTSSFNFTITASQVVDSAVYFCALSGVDNYGQNFVFGPGTRLSVLP
Vbeta: DTAVSQTPKYLVTQMGNDKSIKCEQNLGHDTMYWYKQDSKKFLKIMFSYNNKELIINETVPNRFSPKSPDKAHLNLHINSLELGDSAVYFCASSQGEAGANVLTFGAGSRLTVL
Consider B3, for which the binding result in assay [1] was “no recognition”.

B4: TCR 57 (mouse constant regions) (TCR, V domains shown)
V domain 1: TQLLEQSPQFLSIQEGENLTVYCNSSSVFSSLQWYRQEPGEGPVLLVTVVTGGEVKKLKRLTFQFGDARKDSSLHITAAQPGDTGLYLCAGARNFNKFYFGSGTKLNVKP
V domain 2: GAVVSQHPSWVICKSGTSVKIECRSLDFQATTMFWYRQFPKQSLMLMATSNEGSKATYEQGVEKDKFLINHASLTLSTLTVTSAHPEDSSFYICSARSWRGGLEQFFGPGTRLTVLE
Take B4: in assay [3], the “% of CD8+ cells positive for E7(11-19) tetramer staining” value was found to be 95% and the “% of CD8- (CD4+) cells positive for E7(11-19) tetramer staining” value is 86%. Also, in assay [4], the “% of CD8+ cells positive for E6(29-38) tetramer staining” value came to 0.23% and the “% of CD8- (CD4+) cells positive for E6(29-38) tetramer staining” value is 0.19%.

B5: TCR 58 (TCR, V domains shown)
Valpha: RKEVEQDPGPFNVPEGATVAFNCTYSNSASQSFFWYRQDCRKEPKLLMSVYSSGNEDGRFTAQLNRASQYISLLIRDSKLSDSATYLCVVNRDNYGQNFVFGPGTRLSVLP
Vbeta: EPEVTQTPSHQVTQMGQEVILRCVPISNHLYFYWYRQILGQKVEFLVSFYNNEISEKSEIFDDQFSVERPDGSNFTLKIRSTKLEDSAMYFCASTPRSSYEQYFGPGTRLTVT
For the molecule B5, the figures for the binding result in assay [1] and in assay [2] were “no recognition” and “recognises”, respectively.

B6: TCR 59 (TCR, V domains shown)
Valpha: GQQVMQIPQYQHVQEGEDFTTYCNSSTTLSNIQWYKQRPGGHPVFLIQLVKSGEVKKQKRLTFQFGEAKKNSSLHITATQTTDVGTYFCAPKREYGNKLVFGAGTILRVKS
Vbeta: EPEVTQTPSHQVTQMGQEVILRCVPISNHLYFYWYRQILGQKVEFLVSFYNNEISEKSEIFDDQFSVERPDGSNFTLKIRSTKLEDSAMYFCAYSGRASYEQYFGPGTRLTVT
B6: the binding result in assay [1] is on record as “no recognition”; in assay [2] it was “recognises”.

B7: TCR 60 (TCR, V domains shown)
Valpha: QKEVEQNSGPLSVPEGAIASLNCTYSDRGSQSFFWYRQYSGKSPELIMFIYSNGDKEDGRFTAQLNKASQYVSLLIRDSQPSDSATYLCAVNMLGSGGSNYKLTFGKGTLLTVNP
Vbeta: EPEVTQTPSHQVTQMGQEVILRCVPISNHLYFYWYRQILGQKVEFLVSFYNNEISEKSEIFDDQFSVERPDGSNFTLKIRSTKLEDSAMYFCAISRTVSYEQYFGPGTRLTVT
Turning to B7, the figures for the binding result in assay [1] and in assay [2] were “no recognition” and “recognises”, respectively.

B8: TCR 61 (TCR, V domains shown)
Valpha: QKEVEQNSGPLSVPEGAIASLNCTYSDRGSQSFFWYRQYSGKSPELIMFIYSNGDKEDGRFTAQLNKASQYVSLLIRDSQPSDSATYLCAVNIENNNARLMFGDGTQLVVKP
Vbeta: EPEVTQTPSHQVTQMGQEVILRCVPISNHLYFYWYRQILGQKVEFLVSFYNNEISEKSEIFDDQFSVERPDGSNFTLKIRSTKLEDSAMYFCASTKRFSYEQYFGPGTRLTVT
As for B8, the results for the binding result in assay [1] and in assay [2] were “no recognition” and “recognises”, respectively.

B9: TCR 56 (TCR, V domains shown)
Valpha: GQNIDQPTEMTATEGAIVQINCTYQTSGFNGLFWYQQHAGEAPTFLSYNVLDGLEEKGRFSSFLSRSKGYSYLLLKELQMKDSASYLCAVRDWGYGGATNKLIFGTGTLLAVQP
Vbeta: NAGVMQNPRHLVRRRGQEARLRCSPMKGHSHVYWYRQLPEEGLKFMVYLQKENIIDESGMPKERFSAEFPKEGPSILRIQQVVRGDSAAYFCASSPDESRDSNQPQHFGDGTRLSIL
For B9, the binding result in assay [1] and in assay [2] was “no recognition” throughout.

B10: TCR 62 (mouse constant regions) (TCR, V domains shown)
V domain 1: AQTVTQSQPEMSVQEAETVTLSCTYDTSENNYYLFWYKQPPSRQMILVIRQEAYKQQNATENRFSVNFQKAAKSFSLKISDSQLGDTAMYFCALYTYKYIFGTGTRLKVLA
V domain 2: EAGVAQSPRYKIIEKRQSVAFWCNPISGHATLYWYQQILGQGPKLLIQFQNNGVVDDSQLPKDRFSAERLKGVDSTLKIQPAKLEDSAVYLCASSLDTRGSSYNEQFFGPGTRLTVLE
For the molecule B10, in assay [3], the “% of CD8+ cells positive for E7(11-19) tetramer staining” value was determined as 38.8% and the “% of CD8- (CD4+) cells positive for E7(11-19) tetramer staining” value amounted to 0.07%. Also, in assay [4], the “% of CD8+ cells positive for E6(29-38) tetramer staining” value is 0.2% and the “% of CD8- (CD4+) cells positive for E6(29-38) tetramer staining” value stood at 0.04%.

B11: TCR 62 (TCR, V domains shown)
Valpha: AQTVTQSQPEMSVQEAETVTLSCTYDTSENNYYLFWYKQPPSRQMILVIRQEAYKQQNATENRFSVNFQKAAKSFSLKISDSQLGDTAMYFCALYTYKYIFGTGTRLKVLA
Vbeta: EAGVAQSPRYKIIEKRQSVAFWCNPISGHATLYWYQQILGQGPKLLIQFQNNGVVDDSQLPKDRFSAERLKGVDSTLKIQPAKLEDSAVYLCASSLDTRGSSYNEQFFGPGTRLTVL
In the case of B11, the binding result in assay [1] is “no recognition”; in assay [2], “recognises”.

B12: TCR 63 (mouse constant regions) (TCR, V domains shown)
V domain 1: SQELEQSPQSLIVQEGKNLTINCTSSKTLYGLYWYKQKYGEGLIFLMMLQKGGEEKSHEKITAKLDEKKQQSSLHITASQPSHAGIYLCGADIDDYKLSFGAGTTVTVRA
V domain 2: GAGVSQSPRYKVAKRGQDVALRCDPISGHVSLFWYQQALGQGPEFLTYFQNEAQLDKSGLPSDRFFAERPEGSVSTLKIQRTQQEDSAVYLCASRPRQGYNDNEQFFGPGTRLTVLE
Regarding B12, in assay [3], the “% of CD8+ cells positive for E7(11-19) tetramer staining” value is 0.3% and the “% of CD8- (CD4+) cells positive for E7(11-19) tetramer staining” value is 0.25%. In assay [4], the “% of CD8+ cells positive for E6(29-38) tetramer staining” value was 0.23% and the “% of CD8- (CD4+) cells positive for E6(29-38) tetramer staining” value was 0.12%.

B13: TCR 63 (TCR, V domains shown)
Valpha: SQELEQSPQSLIVQEGKNLTINCTSSKTLYGLYWYKQKYGEGLIFLMMLQKGGEEKSHEKITAKLDEKKQQSSLHITASQPSHAGIYLCGADIDDYKLSFGAGTTVTVRA
Vbeta: GAGVSQSPRYKVAKRGQDVALRCDPISGHVSLFWYQQALGQGPEFLTYFQNEAQLDKSGLPSDRFFAERPEGSVSTLKIQRTQQEDSAVYLCASRPRQGYNDNEQFFGPGTRLTVL
As to B13, the binding result in assay [1] is recorded as “no recognition”.
